This note sets out measurements from publication doi:10.1101/2024.02.20.581209 (bioRxiv, 2024).

Experiment [1] has as its target RomR-REC^141 (Myxococcus xanthus). Nature of the experiment: SEC-MALS. (In gel filtration, larger molecules generally elute earlier.)
Experiment [2] addresses RomR-REC^125 (Myxococcus xanthus). Put plainly: ITC. In general terms: In ITC the heat of successive injections is recorded.
Experiment [3] deals with RomR-REC^141 (Myxococcus xanthus). Put plainly: ITC.
The next experiment concerns the target T1, MglA (Myxococcus xanthus, UniProt Q1DB04 1-195).
T1 sequence: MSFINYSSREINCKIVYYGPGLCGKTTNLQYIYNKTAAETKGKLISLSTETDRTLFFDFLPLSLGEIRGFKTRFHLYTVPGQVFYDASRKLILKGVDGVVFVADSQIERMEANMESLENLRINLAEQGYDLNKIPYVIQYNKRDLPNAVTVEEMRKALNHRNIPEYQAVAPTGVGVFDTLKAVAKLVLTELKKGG
Nature of the experiment: ITC.

What is called stoichiometry N is a count of units in the complex or per binding partner. On to “RomX (hexahistidine-tagged, end of the tag not told for this experiment) (natural protein)”, for which the stoichiometry N in experiment [1] is 1.

B1: RomX (N-terminal hexahistidine tagged construct) (natural protein, M. xanthus)
chain: MTDEEKVKAMRLARAIASDISLYNEQKIIKGIEQDNLFEVLKEELEEGRELYKSRVSQEIFTKMNFFERAINDIVLRSKAHVKSKIW
Usually Kd stands for the constant that tells how readily two partners part at equilibrium. The low end stands for tighter binding, the high end for weaker binding. As for B1, the Kd in experiment [2] was 1140 nM; in experiment [3] it was 1200 nM; with MglA, 4.8 µM. Besides, the values for the stoichiometry N (in experiment [2]; in experiment [3]; in the experiment with MglA) were 1.3, 1.2 and 1.1, respectively.
